The values that follow come from PMC8941942, “Functional and Structural Characterization of Diverse NfsB Chloramphenicol Reductase Enzymes from Human Pathogens” (Microbiology Spectrum, 2022).

Data set [1] addresses T1, Ng FA1090 NfsB (Neisseria gonorrhoeae, UniProt Q5F9K5).
T1 construct: gene NGO_0388
Format: cell-based. Conditions: 100 µg/mL chloramphenicol, MDG medium, 37°C; compared with empty vector.

Data set [2] has as its system NC(=O)C1=CN([C@@H]2O[C@H](COP(=O)(O)OP(=O)(O)OC[C@H]3O[C@@H](n4cnc5c(N)ncnc54)[C@H](OP(=O)(O)O)[C@@H]3O)[C@@H](O)[C@H]2O)C=CC1. Nature of the data set: purified protein. The note with it: apparent, 1 mM chloramphenicol, 1 µM FMN, 50 mM Tris pH 8, ~23°C.
For data set [3], the system named is O=C(N[C@H](CO)[C@H](O)c1ccc([N+](=O)[O-])cc1)C(Cl)Cl. Nature of the data set: purified protein. The note with it: apparent, 1 mM NADPH, 1 µM FMN, 50 mM Tris pH 8, ~23°C.

T1 sequence (Q5F9K5 1-221): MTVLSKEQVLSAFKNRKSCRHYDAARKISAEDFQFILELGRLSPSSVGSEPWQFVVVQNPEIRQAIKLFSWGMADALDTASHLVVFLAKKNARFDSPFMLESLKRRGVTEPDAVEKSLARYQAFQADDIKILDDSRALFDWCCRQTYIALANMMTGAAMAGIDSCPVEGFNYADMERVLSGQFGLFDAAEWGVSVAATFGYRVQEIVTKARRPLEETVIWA

For `O=C(N[C@H](CO)[C@H](O)c1ccc([N+](=O)[O-])cc1)C(Cl)Cl` [chloramphenicol], the “Bratton-Marshall assay of resting E. coli expressing nfsB” value in data set [1] is reported as “Es. coli strains expressing H. influenzae or Neisseria nfsB genes showed robust signal”.

As for “Hi 86-028NP NfsB (Haemophilus influenzae 86-028NP)”, in data set [2], the Km (usually the substrate concentration at which the rate is half of its maximum) amounted to 21 ± 2 µM; the kcat (in general, the number of substrate molecules converted per active site and unit of time at saturation) was determined as 9.9 ± 0.6 s⁻¹; the kcat/Km (commonly the turnover number divided by the Michaelis constant) was determined as 478000 M⁻¹ s⁻¹. In data set [3], the Km amounted to 200 ± 40 µM, the turnover number (kcat) was 8.7 ± 0.9 s⁻¹ and the kcat/Km amounted to 44500 M⁻¹ s⁻¹.

On to “Hi KW20 NfsB (Haemophilus influenzae Rd KW20)”, for which, in data set [2], the Km turned out to be 49 ± 6 µM, the kcat amounted to 13 ± 0.5 s⁻¹ and the kcat/Km was determined as 278000 M⁻¹ s⁻¹. Also, in data set [3], the Michaelis constant (Km) was determined as 260 ± 20 µM, the kcat came out at 14 ± 0.3 s⁻¹ and the kcat/Km amounted to 55500 M⁻¹ s⁻¹.

Take “Nm Z2491 NfsB (Neisseria meningitidis Z2491)”: in data set [2], the Km came to 22 ± 4 µM, the kcat amounted to 8.2 ± 0.3 s⁻¹ and the catalytic efficiency (kcat/Km) was 388000 M⁻¹ s⁻¹. For the same compound, in data set [3], the Km is 1,300 ± 800 μM, the kcat was 8.9 ± 3 s⁻¹ and the kcat/Km was 8120 M⁻¹ s⁻¹.
